Data reported in the supplement of paper PMC9732359.
± gives the uncertainty stated by the source.

Test: protein stability index of a GFP-peptide fusion (yeast GPS) (PSI 1-4); higher = more stable; sorted into four equal gates, so the index is relative within each strain
Procedure, shortened: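 Plasmids isolated from each sorting gate were PCR-amplified and Illumina-sequenced, and barcodes assigned the reads to strains. The gates, four of equal size, were set by GFP/Cherry fluorescence ratio on mid-log cultures in leucine-free medium. These cultures were yeast carrying a pooled library of tiled 17-residue yeast protein peptides fused downstream of GFP on a plasmid that also expresses Cherry. The protein stability index is the sum of every gate's read frequency times its gate number.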

Sequence	protein stability index (doa10∆)	protein stability index (pdr5∆)	protein stability index (san1∆)	protein stability index (ubr1∆)
QWTGGRGGGHHSFEDAH [FAS1]	3.21 ± 0.24	3.47 ± 0.2		
QWYTLQSQLNVTLSQLV [MED8]	1.54 ± 0.034	2.15 ± 0.032	1.85 ± 0.075	1.67 ± 0.032
QYMEELADDDEERFSEL [RPL5]	1.12 ± 0.14	1.14 ± 0.18		
RAFLIEEQKIVKKVVKE [RPL34A]	3.25 ± 0.099	3.02 ± 0.13	2.99 ± 0.12	3.26 ± 0.091
RAGGAAASLIMPFLDNQ [PRE7]				1.11 ± 0.11
RAIILERNAAYQKEYET [RPL7A]	2.59 ± 0.067	2.81 ± 0.05	2.62 ± 0.05	2.89 ± 0.079
RAKALGIKVTNPKGRLA [RPL32]	3.62 ± 0.3	3.33 ± 0.18	2.87 ± 0.23	3.39 ± 0.27
RAPQQSVLQLFQSVQLN [SMC2]	2 ± 0.05	1.98 ± 0.044	2.24 ± 0.051	1.91 ± 0.034
RASIEYYVGQVMRNNES [DIS3]	3.22 ± 0.067	3.21 ± 0.091	3.21 ± 0.053	3.26 ± 0.063
RAYRIIRAHQTELTHHL [QCR7]	3.03 ± 0.11	3.34 ± 0.081	3.01 ± 0.07	2.96 ± 0.064
RDGGLRLGEMERDCVIA [RET1]	3.15 ± 0.18	3.3 ± 0.12	2.54 ± 0.13	3.34 ± 0.095
RDKKEKKQAQKQTKLRK [SMB1]	3.43 ± 0.072	3.53 ± 0.072	3.25 ± 0.076	3.4 ± 0.045
RDLSEASVYPEYALPKT [RPS26A]	3.11 ± 0.078	3.01 ± 0.067	3.16 ± 0.045	3.09 ± 0.034
REGLIDTAVKTAETGYI [RPO21]	1.13 ± 0.058	1.37 ± 0.099	1.23 ± 0.18	1.13 ± 0.051
REKRDRTHFKRMRFPPF [PRP8]	2.27 ± 0.05	2.64 ± 0.069	2.22 ± 0.098	2.2 ± 0.047
RENMICKIDFQKNFMDQ [RRI2]	2.9 ± 0.13	2.96 ± 0.11	3.19 ± 0.067	3.24 ± 0.081
RERRAALTDFERFQVMV [RPL14A]	1.77 ± 0.12	2.24 ± 0.094	1.41 ± 0.13	1.8 ± 0.07
RESFEDNVVRFLNEARD [RPO21]	3.21 ± 0.15	2.98 ± 0.13	3.04 ± 0.16	2.92 ± 0.11
RETDPLVYNMTSFEQGE [RPT4]	3.09 ± 0.12	2.49 ± 0.11	3.23 ± 0.18	2.7 ± 0.068
RETLVKTWEKVTLDFGN [SMC2]	1.77 ± 0.063	1.74 ± 0.14	1.83 ± 0.28	1.27 ± 0.12
RFAFSVIWELDDSANIV [DIS3]	2.63 ± 0.06	2.49 ± 0.067	3.01 ± 0.063	2.62 ± 0.047
RFISDLLWLVLIHPENF [SWI1]	1.82 ± 0.081	1.28 ± 0.092	1.86 ± 0.2	2.59 ± 0.18
RFKSQFLYVLIPAGIYW [QCR8]	1.75 ± 0.14	2.15 ± 0.069	2.07 ± 0.12	2.37 ± 0.092
RFKYAPGTIVLYAERVQ [RPS3]	1.61 ± 0.072	1.65 ± 0.062	1.56 ± 0.1	1.84 ± 0.093
RFNVVKVSAAAGKANKQ [RPS11A]	1.44 ± 0.068	1.38 ± 0.087	2.92 ± 0.18	2.22 ± 0.067
RFVLSDDYSNLKREERQ [SMC3]	2.27 ± 0.085	2.65 ± 0.081	2.43 ± 0.093	2.7 ± 0.059
RFYQLGVDLKLKYSKRR [CSN12]	1.26 ± 0.12	1.16 ± 0.1		1.15 ± 0.088
RGDSTETSSFGSMFSGD [RRI1]	3.5 ± 0.087	3.27 ± 0.16	3.35 ± 0.053	3.27 ± 0.15

Sequence	protein stability index (doa10∆)	protein stability index (pdr5∆)	protein stability index (san1∆)	protein stability index (ubr1∆)
RGHRIRREFKQYSLERN [PRP8]	2.44 ± 0.17	2.61 ± 0.094	2.81 ± 0.23	1.97 ± 0.12
RGHVLQFEWHQNSLLTN [SNF2]	1.93 ± 0.055	2.3 ± 0.064	3.11 ± 0.056	2.6 ± 0.048
RGIPRISTLFQRDRHTL [PRP8]	2.57 ± 0.095	2.66 ± 0.16	2.08 ± 0.079	2.68 ± 0.085
RGKNEIIQNAQRDAVTL [RPO21]	3.3 ± 0.067	2.99 ± 0.078	3.23 ± 0.064	3.04 ± 0.066
RGQQVENPTDNFIIWIN [GRR1]	2.08 ± 0.066	2.35 ± 0.082	2.59 ± 0.063	2.61 ± 0.061
RGSLDSEHVFDYFFYFL [NUT1]	2.8 ± 0.059	2.59 ± 0.042	2.71 ± 0.041	3.16 ± 0.032
RGSSSLYTLVINDAGKA [RPL38]	1.57 ± 0.061	1.26 ± 0.068	1.17 ± 0.13	1.12 ± 0.086
RHFWGLRVRGQHTKTTG [RPS18A]	1.81 ± 0.062	1.99 ± 0.087	1.77 ± 0.12	2.16 ± 0.056
RHGSVVEASRRRRSSTN [MED1]	3.19 ± 0.073	3.41 ± 0.078	3.26 ± 0.045	3.3 ± 0.044
RIARALKQEGAANKTVV [RPL18A]	3.44 ± 0.22	3.39 ± 0.095	2.95 ± 0.15	3.33 ± 0.052
RIGTIVHKERHDGGFDL [RPS4A]		2.54 ± 0.16	1.65 ± 0.17	1.99 ± 0.23
RIMEKSVILSVISMFVL [YML031W/NDC1]	1.31 ± 0.14	1.44 ± 0.1	1.17 ± 0.11	1.12 ± 0.049
RIMSRNFYLKRFISDLL [SWI1]	2.32 ± 0.058	2.37 ± 0.074	2.08 ± 0.095	1.54 ± 0.034
RIQNRVKLGLNSKMPTR [PRP8]	2.48 ± 0.16	2.92 ± 0.1	2.74 ± 0.13	2.91 ± 0.13
RIVNHKTKLWGFKWLNK [LIN1]	2.87 ± 0.13	3.1 ± 0.13	2.87 ± 0.3	2.88 ± 0.091
RKDENQFSYVDSSMTTV [AAR2]	2.98 ± 0.041	3.09 ± 0.045	3 ± 0.033	3.06 ± 0.04
RKILKKTFKNPKYESLK [RPN5]	2.87 ± 0.094	2.96 ± 0.07	3.18 ± 0.094	3.19 ± 0.062
RKKRTRRLKRKRRKVRA [RPL41A]	3.14 ± 0.16	3.21 ± 0.13	3.15 ± 0.12	3.17 ± 0.086
RKLGLLGDKEDEKQSAK [MTW1]	3.37 ± 0.083	3.41 ± 0.09	2.94 ± 0.1	3.28 ± 0.067
RKMTTDDDINWQELARS [RPT5]	1.79 ± 0.055	2.93 ± 0.072	3.16 ± 0.097	3 ± 0.07
RKQRVKKKTKKELELER [SWI1]	2.69 ± 0.13	2.96 ± 0.13	3.56 ± 0.12	2.2 ± 0.13
RKSYKNQIADLSGKFST [ROX3]	2.76 ± 0.082	2.94 ± 0.063	2.84 ± 0.06	2.92 ± 0.036
RKVENIRTILVNIHHLL [MED7]	1.55 ± 0.04	1.74 ± 0.041	1.5 ± 0.087	1.32 ± 0.033
RKVREQEELKKRQELEE [MED2]	1.86 ± 0.039	2.36 ± 0.048	1.96 ± 0.1	2.55 ± 0.033
RLFNVVVQDSQTATQLL [SMC2]	2.94 ± 0.07	2.79 ± 0.11	2.61 ± 0.1	2.44 ± 0.079
RLGEMERDCVIAYGASQ [RET1]	3.24 ± 0.095	3.28 ± 0.086	2.55 ± 0.13	3.22 ± 0.062
RLGLIPLQSMDIEQLEY [RPB3]	2.75 ± 0.067	2.92 ± 0.063	2.91 ± 0.088	2.72 ± 0.083
